Source: PMC5365251 (2017)
Non-standard residues stand in square brackets, D forms with d. Primed or numbered codes have the meaning given here. No end group written: not given here. *: point of attachment. PEG28′ = (PEG)28 spacer, 28 polyethylene glycol repeats; Biotin = O=C1N[C@H]2[C@H](CS[C@H]2CCCCC(=O)*)N1; pY = N[C@@H](Cc1ccc(OP(=O)(O)O)cc1)C(=O)O

Target: T1, LAIR-1 ITIM phosphopeptide (PEG28-ITIM) (Mus musculus)
T1 chain: {Biotin-PEG28′}-DLQEVT[pY]IQLDHH
Test: SPR

B1: SHP-1 (protein)
chain: not shown
Kd: 9.38 µM
